Experimental data from the Immune Epitope Database (IEDB).

Tests used:
[1] = target: HLA-A*68:02; test: IEDB peptide-MHC binding, purified MHC/competitive/radioactivity; filed as Kd, often an IC50 or EC50 that approximates it; ≥ and ≤ were set here for values at or beyond the usual limits of such assays
[2] = target: HLA-A*24:02; test: IEDB peptide-MHC binding, purified MHC/competitive/fluorescence; ≥ and ≤ were set here for values at or beyond the usual limits of such assays
[3] = target: HLA-A*02:01; test: as above; conditions: source organism: Zaire ebolavirus
[4] = target: HLA-B*44:03; test: IEDB peptide-MHC binding, purified MHC/competitive/radioactivity; filed as Kd, often an IC50 or EC50 that approximates it; ≥ and ≤ were set here for values at or beyond the usual limits of such assays
[5] = target: HLA-B*07:02; test: as above
[6] = target: HLA-A*02:06; test: as above
[7] = target: HLA-A*24:03; test: IEDB peptide-MHC binding, purified MHC/direct/fluorescence; filed as Kd, often an IC50 or EC50 that approximates it; ≥ and ≤ were set here for values at or beyond the usual limits of such assays
[8] = target: HLA-B*51:01; test: IEDB peptide-MHC binding, purified MHC/competitive/radioactivity; filed as Kd, often an IC50 or EC50 that approximates it; ≥ and ≤ were set here for values at or beyond the usual limits of such assays
[9] = target: HLA-B*40:01; test: as above
[10] = target: HLA-B*51:01; test: IEDB peptide-MHC binding, purified MHC/competitive/fluorescence; filed as Kd, often an IC50 or EC50 that approximates it; ≥ and ≤ were set here for values at or beyond the usual limits of such assays; conditions: source organism: Bacillus cereus 95/8201
[11] = target: HLA-B*53:01; test: IEDB peptide-MHC binding, purified MHC/competitive/radioactivity; filed as Kd, often an IC50 or EC50 that approximates it; ≥ and ≤ were set here for values at or beyond the usual limits of such assays
[12] = target: HLA-B*08:01; test: as above
[13] = target: HLA-A*02:03; test: as above; conditions: source organism: Mammarenavirus whitewaterense
[14] = target: HLA-A*02:02; test: as above; conditions: source organism: Mammarenavirus whitewaterense
[15] = target: HLA-B*44:02; test: as above
[16] = target: HLA-A*31:01; test: IEDB peptide-MHC binding, purified MHC/direct/fluorescence; filed as Kd, often an IC50 or EC50 that approximates it; ≥ and ≤ were set here for values at or beyond the usual limits of such assays; conditions: source organism: Yersinia pestis
[17] = target: HLA-A*11:01; test: as above; conditions: source organism: Yersinia pestis
[18] = target: HLA-B*27:05; test: as above; conditions: source organism: Yersinia pestis
[19] = target: HLA-A*03:01; test: as above; conditions: source organism: Yersinia pestis
[20] = target: HLA-B*40:01; test: as above; conditions: source organism: Yersinia pestis
[21] = target: HLA-B*15:01; test: as above; conditions: source organism: Yersinia pestis
[22] = target: HLA-A*01:01; test: as above; conditions: source organism: Yersinia pestis
[23] = target: HLA-B*58:01; test: as above; conditions: source organism: Yersinia pestis
[24] = target: HLA-A*26:01; test: as above; conditions: source organism: Yersinia pestis
[25] = target: HLA-B*07:02; test: as above; conditions: source organism: Yersinia pestis
[26] = target: HLA-B*08:01; test: as above; conditions: source organism: Yersinia pestis
[27] = target: HLA-A*02:01; test: as above; conditions: source organism: Yersinia pestis
[28] = target: HLA-A*69:01; test: as above; conditions: source organism: Yersinia pestis
[29] = target: HLA-B*15:01; test: IEDB peptide-MHC binding, purified MHC/competitive/fluorescence; filed as Kd, often an IC50 or EC50 that approximates it; ≥ and ≤ were set here for values at or beyond the usual limits of such assays; conditions: source organism: Human immunodeficiency virus 1
[30] = source organism: Zaire ebolavirus
[31] = source organism: Dengue virus 4 Philippines/H241/1956
[32] = source organism: Dengue virus 1 Brazil/97-11/1997
[33] = source organism: Dengue virus 2 Jamaica/1409/1983
[34] = source organism: Vaccinia virus WR
[35] = source organism: Dengue virus 3 Martinique/1243/1999
[36] = source organism: Mammarenavirus whitewaterense

Sequence: CVMASSVLL
- Kd ([1]; source organism: Dengue virus 1 Singapore/S275/1990): 1.46 nM

Sequence: YVQLESRFT
- IC50 [2, 30]: ≥ 203000 nM
- IC50 [3]: 39300 nM

Sequence: NELNYVLWE
- Kd [4, 31]: 159 nM

Sequence: MTATPPGSV
- Kd [1, 32]: 6.2 nM

Sequence: SPGKFWNTTI
- Kd [5, 32]: 5.6 nM

Sequence: LSVSLVLVGV
- Kd [1, 33]: 12.2 nM
- Kd [6, 33]: 75.5 nM

Sequence: RYGWSGAVF
- Kd ([7]; source organism: Shigella sonnei Ss046): ≤ 1 nM

Sequence: IPPEKCDTL
- Kd ([8]; source organism: Dengue virus 2 16681-PDK53): ≥ 77400 nM

Sequence: LTVAANEMGL
- Kd [1, 32]: 198 nM

Sequence: PWTKISETK
- IC50 [2, 34]: ≥ 169000 nM

Sequence: TAIANQATV
- Kd [1, 33]: 10 nM

Sequence: IENTSANLSL
- Kd [9, 31]: 34.4 nM

Sequence: VPFCSHHFHE
- Kd [8, 35]: ≥ 66600 nM

Sequence: GPLIAGGMLI
- Kd [8, 32]: 18800 nM

Sequence: RFLVINRLG
- IC50 [2, 34]: 16400 nM

Sequence: MQYVPAWIV
- Kd [10]: ≥ 20000 nM

Sequence: AETQHGTIV
- Kd [9, 33]: 15.1 nM
- Kd [4, 33]: 225 nM

Sequence: TEAKQPATL
- Kd [9, 33]: 18.6 nM

Sequence: QPMELKYSW
- Kd [11, 35]: 7.76 nM

Sequence: MPIRYQTTA
- Kd [8, 32]: 1690 nM
- Kd [12, 32]: 201 nM

Sequence: MEFIDGISLG
- Kd [9, 31]: 137 nM

Sequence: EPPFGDSYI
- Kd [8, 33]: 349 nM

Sequence: LPVWLSYKV
- Kd [11, 32]: 164 nM
- Kd [8, 32]: 418 nM

Sequence: EPGQLKLNW
- Kd [11, 33]: 33.1 nM

Sequence: GPLKLFMAL
- Kd [11, 33]: 1010 nM
- Kd [5, 33]: 2.35 nM
- Kd [8, 33]: ≥ 77400 nM
- Kd [12, 33]: 19.3 nM

Sequence: ALNIALIAV
- Kd [1, 36]: 3090 nM
- Kd [6, 36]: 100 nM
- Kd [13]: 0.225 nM
- Kd [14]: 0.699 nM

Sequence: FDLCEGTTVV
- Kd [8, 32]: 10500 nM

Sequence: SPGYVLGVF
- Kd ([5]; source organism: Dengue virus 4 Dominica/814669/1981): 8.71 nM

Sequence: TEEIAVQNW
- Kd [15, 33]: 15.4 nM
- Kd [4, 33]: 36.8 nM

Sequence: LTDEDKQNQ
- Kd ([7]; source organism: Yersinia pestis): ≥ 20000 nM
- Kd [16]: ≥ 20000 nM
- Kd [17]: ≥ 20000 nM
- Kd [18]: ≥ 20000 nM
- Kd [19]: ≥ 20000 nM
- Kd [20]: ≥ 20000 nM
- Kd [21]: ≥ 20000 nM
- Kd [22]: ≥ 20000 nM
- Kd [23]: ≥ 20000 nM
- Kd [24]: ≥ 20000 nM
- Kd [25]: ≥ 20000 nM
- Kd [26]: ≥ 20000 nM
- Kd [27]: ≥ 20000 nM
- Kd [28]: ≥ 20000 nM

Sequence: FGRAKGSRAI
- Kd [8, 31]: 14500 nM

Sequence: GEYRLKGESR
- Kd [9, 35]: 4130 nM

Sequence: KEYTYPDSL
- IC50 [2, 30]: ≥ 184000 nM

Sequence: TQGYFPDWQNY
- Kd [29]: 84.6 nM

Sequence: FETYQLWTAL
- Kd [9, 35]: 10.4 nM
- Kd [8, 35]: 1900 nM

Sequence: TEVDRTEAK
- Kd [15, 35]: ≥ 20800 nM

Sequence: AICSAVPTEW
- Kd [15, 31]: 743 nM

Sequence: GEWKEGEEV
- Kd [9, 33]: 295 nM
- Kd [15, 33]: 16300 nM

Sequence: QESADSFLL
- IC50 [2, 30]: ≥ 138000 nM

Sequence: IETLMLLALI
- Kd [9, 32]: 206 nM
- Kd [4, 32]: 1050 nM
